Measurements from article PMC4822156, “Structural basis for ligand-dependent dimerization of phenylalanine hydroxylase regulatory domain” (Scientific Reports, 2016).

Biological target: the molecule itself
Test: SEC-MALS; hTH-RD in the absence of amino acid ligand (Supplementary Fig. S2C)

B1: regulatory domain of human tyrosine hydroxylase (hTH-RD), residues 65-160 (domain or fragment, UniProt P07101 96-191, looked up)
chain: GDPLEAVAFEEKEGKAVLNLLFSPRATKPSALSRAVKVFETFEAKIHHLETRPAQRPRAGGPHLEYFVRLEVRRGDLAALLSGVRQVSEDVRSPAG
notes: tyrosine hydroxylase (TH), human, regulatory domain, residues 65-160; which isoform the numbers count on is told only by GenBank number 88900503; Vector pFB-Lic-Bse; source: insect sf9 cells, purified (as the PAH domains); not shown: His6, N-terminal, cleaved
  stoichiometry N: 2
